Assay [1] deals with DENV2 sE SHP2, displayed on EXPI293F cells (Dengue virus 2 strain 16681). In words: flow cytometry, EXPI293F surface display, 40 C. Background: A flow cytometer gives signals particle by particle.
The target in assay [2] is DENV2 sE Mnmer1, displayed on EXPI293F cells (Dengue virus 2 strain 16681). In words: flow cytometry, EXPI293F surface display, 40 C.
For assay [3], the target named is DENV2 sE PM2, displayed on EXPI293F cells (Dengue virus 2 strain 16681). In words: flow cytometry, EXPI293F surface display, 40 C.
Assay [4] deals with DENV2 sE UndPk6, displayed on EXPI293F cells (Dengue virus 2 strain 16681). Briefly: flow cytometry, EXPI293F surface display, 40 C.
The target in assay [5] is DENV2 sE IntFc2, displayed on EXPI293F cells (Dengue virus 2 strain 16681). In words: flow cytometry, EXPI293F surface display, 40 C.
For assay [6], the target named is DENV2 sE IntFc8, displayed on EXPI293F cells (Dengue virus 2 strain 16681). In words: flow cytometry, EXPI293F surface display, 40 C.
Assay [7] addresses DENV2 sE Cm2, displayed on EXPI293F cells (Dengue virus 2 strain 16681). In words: flow cytometry, EXPI293F surface display, 40 C.
Assay [8] concerns the target DENV2 sE HCat3, displayed on EXPI293F cells (Dengue virus 2 strain 16681). In words: flow cytometry, EXPI293F surface display, 40 C.
Assay [9] addresses DENV2 sE WT, displayed on EXPI293F cells (Dengue virus 2 strain 16681). Briefly: flow cytometry, EXPI293F surface display, 40 C.
For assay [10], the target named is DENV2 sE Cm1, displayed on EXPI293F cells (Dengue virus 2 strain 16681). In words: flow cytometry, EXPI293F surface display, 40 C.
In assay [11] the target is DENV2 sE SHP1, displayed on EXPI293F cells (Dengue virus 2 strain 16681). In words: flow cytometry, EXPI293F surface display, 40 C.
For assay [12], the target named is DENV2 sE IntFc6, displayed on EXPI293F cells (Dengue virus 2 strain 16681). In words: flow cytometry, EXPI293F surface display, 40 C.
For assay [13], the target named is DENV2 sE PM4, displayed on EXPI293F cells (Dengue virus 2 strain 16681). Briefly: flow cytometry, EXPI293F surface display, 40 C.
Assay [14] has as its target DENV2 sE Mnmer2, displayed on EXPI293F cells (Dengue virus 2 strain 16681). Briefly: flow cytometry, EXPI293F surface display, 40 C.
In assay [15] the target is DENV2 sE SHP2, displayed on EXPI293F cells (Dengue virus 2 strain 16681). Briefly: flow cytometry, EXPI293F surface display, RT (~23 C).
For assay [16], the target named is DENV2 sE Mnmer1, displayed on EXPI293F cells (Dengue virus 2 strain 16681). The assay is described as above.
Assay [17] deals with DENV2 sE PM2, displayed on EXPI293F cells (Dengue virus 2 strain 16681). The description is as above.
Assay [18] deals with DENV2 sE UndPk6, displayed on EXPI293F cells (Dengue virus 2 strain 16681). The description is as above.
In assay [19] the target is DENV2 sE IntFc2, displayed on EXPI293F cells (Dengue virus 2 strain 16681). Described as above.
The target in assay [20] is DENV2 sE IntFc8, displayed on EXPI293F cells (Dengue virus 2 strain 16681). Described as above.
For assay [21], the target named is DENV2 sE Cm2, displayed on EXPI293F cells (Dengue virus 2 strain 16681). The description is as above.
For assay [22], the target named is DENV2 sE HCat3, displayed on EXPI293F cells (Dengue virus 2 strain 16681). The assay is described as above.
The target in assay [23] is DENV2 sE WT, displayed on EXPI293F cells (Dengue virus 2 strain 16681). The description is as above.
In assay [24] the target is DENV2 sE Cm1, displayed on EXPI293F cells (Dengue virus 2 strain 16681). The assay is described as above.
For assay [25], the target named is DENV2 sE SHP1, displayed on EXPI293F cells (Dengue virus 2 strain 16681). The description is as above.
For assay [26], the target named is DENV2 sE IntFc6, displayed on EXPI293F cells (Dengue virus 2 strain 16681). Described as above.
Assay [27] deals with DENV2 sE PM4, displayed on EXPI293F cells (Dengue virus 2 strain 16681). Described as above.
In assay [28] the target is DENV2 sE Mnmer2, displayed on EXPI293F cells (Dengue virus 2 strain 16681). Described as above.
The target in assay [29] is DENV2 sE WT (Dengue virus 2 strain 16681) (UniProt P29990). In words: nanoDSF Van't Hoff, homodimer, 37 C. The arrangement: TΔS°bind: unit not given here.
Assay [30] has as its target DENV2 sE SHP2, displayed on EXPI293F cells (Dengue virus 2 strain 16681). In words: flow cytometry, displayed sE, 40 C.
For assay [31], the target named is DENV2 sE PM2, displayed on EXPI293F cells (Dengue virus 2 strain 16681). In words: flow cytometry, displayed sE, 40 C.
Assay [32] concerns the target DENV2 sE UndPk6, displayed on EXPI293F cells (Dengue virus 2 strain 16681). In words: flow cytometry, displayed sE, 40 C.
Assay [33] has as its target DENV2 sE IntFc2, displayed on EXPI293F cells (Dengue virus 2 strain 16681). Briefly: flow cytometry, displayed sE, 40 C.
Assay [34] addresses DENV2 sE IntFc8, displayed on EXPI293F cells (Dengue virus 2 strain 16681). Briefly: flow cytometry, displayed sE, 40 C.
Assay [35] has as its target DENV2 sE HCat3, displayed on EXPI293F cells (Dengue virus 2 strain 16681). Briefly: flow cytometry, displayed sE, 40 C.
Assay [36] concerns the target DENV2 sE SHP1, displayed on EXPI293F cells (Dengue virus 2 strain 16681). In words: flow cytometry, displayed sE, 40 C.
Assay [37] addresses DENV2 sE PM4, displayed on EXPI293F cells (Dengue virus 2 strain 16681). Briefly: flow cytometry, displayed sE, 40 C.

For 1C19 (antibody), the Fluorescence Ratio (Fr, Var/WT) in assay [1] was 1.9; in assay [2], 0; in assay [3], 2.5; in assay [4] it was 2.9; in [5], 2.5; in assay [6] it was 3.5. The Fluorescence Ratio (Fr, Var/WT) in [7] was 1.6; in assay [8], 2.5; in assay [9], 1; in [10], 3.2; in assay [11] it was 1.8; in assay [12] it was 0. The Fluorescence Ratio (Fr, Var/WT) amounted to 3.1 in assay [13]; 0.8 in [14]; 1.2 in assay [15]; 0.2 in [16]; 1.7 in [17]; 2.4 in [18]. Besides, the Fluorescence Ratio (Fr, Var/WT) was 1.4 in assay [19]; 2 in [20]; 0.6 in assay [21]; 1.5 in [22]; 1 in [23]; 0.9 in assay [24]. In addition, the Fluorescence Ratio (Fr, Var/WT) in assay [25] was determined as 1.3; in assay [26] it was 0.8; in assay [27], 2.1; in [28], 0.8.
As to 3H5 (antibody), the Fluorescence Ratio (Fr, Var/WT) in assay [1] turned out to be 0.5; in assay [2], 0; in assay [3], 0.5; in [4], 0.4; in assay [5], 0.6; in assay [6] it was 0.4. Besides, the Fluorescence Ratio (Fr, Var/WT) in assay [7] was determined as 0.6; in [8], 0.6; in assay [9] it was 1; in assay [10], 0.6; in assay [11], 0.5; in assay [12] it was 0. For the same substance, the Fluorescence Ratio (Fr, Var/WT) in assay [13] turned out to be 0.4; in [14], 0.8; in assay [15], 0.6; in assay [16] it was 0.3; in [17] it was 0.7; in assay [18], 0.8. Also, the Fluorescence Ratio (Fr, Var/WT) in assay [19] stood at 0.8; in [20], 0.5; in [21], 0.4; in assay [22], 0.7; in [23], 1; in assay [24], 0.5. Also, the Fluorescence Ratio (Fr, Var/WT) is 0.7 in assay [25], 0.6 in assay [26], 0.8 in assay [27] and 0.8 in assay [28].
The Kd is the free concentration of one partner at which half of the binding sites on the other are occupied at equilibrium, for simple one-to-one binding. “DENV2 sE WT (from UniProt P29990 281-677)”: in assay [29], the Kd was 13 µM, the TΔS°bind is -67.1, the ΔG°bind is -6.9 kcal/mol and the ΔH°bind was -74.1 kcal/mol.
For EDE1 C8 (antibody), the Fluorescence Ratio (Fr, Var/WT) in assay [15] stood at 2.3; in [16] it was 0.7; in assay [17], 2.4; in assay [18], 2.3; in assay [19], 1.3; in assay [20], 3.3. Further, the Fluorescence Ratio (Fr, Var/WT) in assay [21] amounted to 1.7; in [22], 1.9; in assay [23], 1; in [24] it was 0.9; in [25], 2.9; in assay [26], 1.3. In addition, the Fluorescence Ratio (Fr, Var/WT) in assay [27] is 3.2; in [28], 2.7.
As for EDE1 C10 (antibody), the Fluorescence Ratio (Fr, Var/WT) in [1] is 3.8; in assay [2], 0; in assay [3] it was 3.7; in assay [4] it was 4.1; in assay [5] it was 3.4; in assay [6], 5.9. For the same substance, the Fluorescence Ratio (Fr, Var/WT) in assay [7] was 3.8; in [8], 3; in assay [9] it was 1; in assay [11] it was 5.6; in [12] it was 0; in assay [14], 0.1. Also, the Fr (geometric mean fluorescence intensity ratio, variant/WT) in assay [30], in [31], in assay [32], in [33], in assay [34] and in assay [35] was above 2 fold in each case. Besides, the Fr (geometric mean fluorescence intensity ratio, variant/WT) in [36] and in assay [37] was above 2 fold throughout.
